For orientation: IC50 means the concentration needed to halve the response being measured.

Test in all cases: enzyme inhibition assay (fluorogenic substrate cleavage); one unit of active recombinant human caspase incubated with various concentrations of peptide inhibitor in 100 mM NaCl, 50 mM HEPES, 10 mM DTT, 1 mM EDTA, 10% glycerol, 0.1% CHAPS, pH 7.4, 37°C, 30 min; then 200 μM substrate (Ac-DEVD-MCA for caspases-3 and -7, Ac-IETD-MCA for caspase-8, Ac-LEHD-MCA for caspase-9); apparent Ki = IC50/(1+[S]/Km)
Holding throughout (conditions): both partners purified

Experiment [1] deals with T1, Recombinant human caspase-3 (active) (human, UniProt P42574 1-277).
Experiment [2] has as its target T2, Recombinant human caspase-7 (active) (human, UniProt P55210 1-303).
Experiment [3] has as its target Recombinant human caspase-8 (active) (human, UniProt Q14790 1-479).
Experiment [4] addresses T1, Recombinant human caspase-3 (active). The source holds these as a separate data set.
The target in experiment [5] is T2, Recombinant human caspase-7 (active). The source holds these as a separate data set.

T2 sequence (P55210 whole entry): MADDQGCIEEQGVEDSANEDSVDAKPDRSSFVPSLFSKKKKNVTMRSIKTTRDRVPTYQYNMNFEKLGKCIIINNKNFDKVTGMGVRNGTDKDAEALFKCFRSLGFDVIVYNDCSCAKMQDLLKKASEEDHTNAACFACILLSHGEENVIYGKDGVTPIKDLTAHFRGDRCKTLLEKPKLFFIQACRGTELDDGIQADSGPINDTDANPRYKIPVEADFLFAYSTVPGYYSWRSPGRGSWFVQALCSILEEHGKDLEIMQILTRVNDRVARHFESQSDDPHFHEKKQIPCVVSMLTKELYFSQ
T1 sequence (P42574 whole entry): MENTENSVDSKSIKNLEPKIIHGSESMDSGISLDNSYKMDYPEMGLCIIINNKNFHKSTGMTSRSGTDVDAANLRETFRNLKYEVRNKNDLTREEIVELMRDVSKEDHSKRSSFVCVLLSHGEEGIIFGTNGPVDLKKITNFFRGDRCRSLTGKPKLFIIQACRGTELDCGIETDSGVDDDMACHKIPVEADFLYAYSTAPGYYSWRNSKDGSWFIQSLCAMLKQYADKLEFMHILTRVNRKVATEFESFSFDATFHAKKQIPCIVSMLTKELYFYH
Recombinant human caspase-8 (active), sequence (Q14790 whole entry): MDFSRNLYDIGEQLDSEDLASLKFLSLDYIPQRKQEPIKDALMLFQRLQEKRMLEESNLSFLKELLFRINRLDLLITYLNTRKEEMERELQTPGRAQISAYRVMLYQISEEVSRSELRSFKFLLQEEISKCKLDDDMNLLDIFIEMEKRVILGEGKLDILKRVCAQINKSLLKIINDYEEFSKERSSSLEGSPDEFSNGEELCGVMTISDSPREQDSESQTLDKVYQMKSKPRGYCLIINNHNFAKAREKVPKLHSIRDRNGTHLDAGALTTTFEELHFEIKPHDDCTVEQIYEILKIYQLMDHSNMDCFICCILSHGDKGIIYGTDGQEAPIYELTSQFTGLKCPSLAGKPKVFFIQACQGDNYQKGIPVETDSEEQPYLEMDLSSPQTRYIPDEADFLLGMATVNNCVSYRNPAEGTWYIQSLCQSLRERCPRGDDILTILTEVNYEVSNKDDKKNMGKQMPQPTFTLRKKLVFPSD

B1: Ac-DQTD-CHO (peptide)
peptide: Ac-DQTD-aldehyde
SMILES: CC(=O)N[C@@H](CC(=O)O)C(=O)N[C@@H](CCC(N)=O)C(=O)N[C@H](C(=O)N[C@H](C=O)CC(=O)O)[C@@H](C)O
notes: source: bought: Peptide Institute, Inc (synthetic peptide)
For B1, the values for the Ki in experiment [1], in experiment [2] and in experiment [3] were 1.27 ± 0.11 nM, 21.8 ± 1.1 nM and 9.75 ± 1.09 nM, respectively.

B2: Ac-DMQD-CHO (peptide)
peptide: Ac-DMQD-aldehyde
SMILES: CSCC[C@H](NC(=O)[C@H](CC(=O)O)NC(C)=O)C(=O)N[C@@H](CCC(N)=O)C(=O)N[C@H](C=O)CC(=O)O
notes: as for B1
In the case of B2, the IC50 in experiment [4] is 193 nM. Further, the Ki in experiment [1] was 13.3 ± 0.3 nM; in experiment [2], over 200 nM; in experiment [3] it was over 200 nM.

B3: Ac-DEVD-CHO (peptide)
peptide: Ac-DEVD-aldehyde
notes: as for B1
B3: the IC50 in experiment [5] is 19.7 nM. Also, the Ki in experiment [2] is 4.48 ± 0.21 nM; in experiment [3], 0.597 ± 0.095 nM.

B4: Ac-DNLD-CHO (peptide)
peptide: Ac-DNLD-aldehyde
notes: tetrapeptide designed by the computational APF method; so far not known in any natural caspase substrate; source: synthetic peptide (synthesized by Peptide Institute, Inc)
Regarding B4, the Ki in experiment [3] was over 200 nM.

Values taken from PMC1931592 (BMC Pharmacology, 2007).
